According to paper doi:10.1101/2024.09.16.613172:
pKd: −log10 of the molar value.

Columns and labels:
Assay in all cases: ITC
SH3L-optiMHETase = target: SH3L-optiMHETase
[1] = target: ICCG-ScaA (not stated | Ruminococcus flavefaciens)
[2] = target: FAST-PETase-CelK (not stated | Clostridium thermocellum)
[3] = target: MHETase-CelF (not stated | Clostridium cellulolyticum) (UniProt P37698)

pKd (SH3L-optiMHETase)	pKd [1]	pKd [2]	pKd [3]	Substance
8.45	8.28	8.19	–	CipA-CBM-SH3D-ScaB (Scaf.4)
7.90	–	–	–	CipA-CBM-SH3D (Scaf.3)
–	–	7.72	6.00	CipA-CBM-CipC (Scaf.2)
